Data: US20250019439A1 (Adimab, published 2025)

Assays:
CTL-62223 = target: T1, CTL-62223; test: SPR Carterra avidity, CHO anti-ID, *koff limit
T1 construct: also called mosunetuzumab
Description: (§1) Kinetic analysis was conducted at 25° C. in an HBSTE running buffer system (Carterra Cat #3630) using a Carterra LSA (Carterra USA, Salt Lake City, UT). The sample compartment was maintained at 20° C. for the duration of each experiment.
(§2) For antibody capture experiments, a goat anti-human Fc antibody (Jackson ImmunoResearch) was covalently coupled to an HC30M sensor chip surface via standard amine coupling (1:1 EDC:NHS) and then blocked with ethanolamine (1.0 M, pH 8.5). Covalent coupling steps were performed in 25 mM MES buffer (Carterra, Cat #3625) plus 0.05% Tween20. The anti-CD3 antibodies (100 nM in running buffer) were flowed over discrete regions of interest on the chip surface for 5 minutes. […] Dissociation of the anti-idiotype antibodies was monitored for 300s. Several blank buffer samples were injected over the entire chip surface at the start of each non-regenerative kinetic cycle. The preceding blank buffer injection was used for blank surface subtraction. At the end of each non-regenerative kinetic cycle, all surfaces were regenerated via two 30s injections of 10 mM glycine, pH 1.7.
(§3) For data processing and fitting, sensorgrams were double reference subtracted with a baseline drift correction of 4 RU. Sensorgrams were y-aligned and baseline corrected, filtered and cropped to include only the association and dissociation steps. Data was fitted to a 1:1 binding model using Carterra Kinetics Data Analysis software version 1.7.1.3055.

ADI-26924 [1] = target: T2, ADI-26924; test: SPR Carterra avidity, CHO anti-ID, *koff limit
T2 construct: anti-CD3 antibody made in CHO cells, captured by anti-human Fc
T2 sequence (VH, as listed by the source, chain 1 of 2): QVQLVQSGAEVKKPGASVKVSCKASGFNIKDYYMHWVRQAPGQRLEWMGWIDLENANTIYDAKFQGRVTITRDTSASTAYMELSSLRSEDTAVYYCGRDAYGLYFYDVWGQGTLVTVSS
T2 sequence (VL, as listed by the source, chain 2 of 2): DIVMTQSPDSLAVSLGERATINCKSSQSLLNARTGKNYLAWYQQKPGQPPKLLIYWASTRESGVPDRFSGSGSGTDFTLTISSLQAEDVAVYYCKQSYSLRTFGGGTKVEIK
Description: as §1, §2, §3

ADI-26943 [2] = target: T3, ADI-26943; test: SPR Carterra avidity, CHO anti-ID, *koff limit
T3 construct: anti-CD3 antibody made in CHO cells, captured by anti-human Fc
T3 sequence (VH, as listed by the source, chain 1 of 2): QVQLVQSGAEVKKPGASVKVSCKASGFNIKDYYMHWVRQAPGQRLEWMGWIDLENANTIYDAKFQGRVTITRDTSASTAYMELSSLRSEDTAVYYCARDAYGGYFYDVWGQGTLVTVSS
T3 sequence (VL, as listed by the source, chain 2 of 2): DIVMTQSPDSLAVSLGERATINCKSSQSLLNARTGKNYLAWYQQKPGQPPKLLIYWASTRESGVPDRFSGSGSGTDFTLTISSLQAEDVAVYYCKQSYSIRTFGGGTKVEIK
Description: as §1, §2, §3

ADI-26909 = target: T4, ADI-26909; test: SPR Carterra avidity, CHO anti-ID, *koff limit
T4 construct: anti-CD3 antibody made in CHO cells, captured by anti-human Fc
T4 sequence (VH, as listed by the source limits assumed, chain 1 of 2): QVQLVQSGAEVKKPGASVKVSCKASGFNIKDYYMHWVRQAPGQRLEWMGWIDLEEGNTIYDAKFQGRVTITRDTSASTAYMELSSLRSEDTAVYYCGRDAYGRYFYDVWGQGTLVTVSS
T4 sequence (VL, as listed by the source limits assumed, chain 2 of 2): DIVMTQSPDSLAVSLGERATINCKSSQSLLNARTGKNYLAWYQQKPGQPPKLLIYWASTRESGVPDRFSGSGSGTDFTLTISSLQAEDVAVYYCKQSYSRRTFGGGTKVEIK
Description: as §1, §2, §3

ADI-48650 = target: T5, ADI-48650; test: SPR Carterra avidity, CHO anti-ID; CHO-produced ADI-34134 (Table 10C)
T5 construct: pH-dependent anti-CD3 antibody made in CHO cells
T5 sequence (VH, as listed by the source, chain 1 of 2): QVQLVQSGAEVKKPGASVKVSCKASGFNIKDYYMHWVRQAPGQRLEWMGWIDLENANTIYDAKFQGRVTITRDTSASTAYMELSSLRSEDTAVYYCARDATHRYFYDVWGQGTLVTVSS
T5 sequence (VL, as listed by the source, chain 2 of 2): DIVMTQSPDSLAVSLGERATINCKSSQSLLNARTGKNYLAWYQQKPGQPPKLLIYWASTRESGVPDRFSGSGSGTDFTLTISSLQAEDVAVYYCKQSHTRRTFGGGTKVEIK
Description: as §1, §2
(§4) For data processing and fitting, sensorgrams were double reference subtracted with a baseline drift correction of 4 RU. Sensorgrams were y-aligned and baseline corrected, filtered and cropped to include only the association and dissociation steps. […]

ADI-74965 = target: T6, ADI-74965; test: as above
T6 construct: pH-dependent anti-CD3 antibody made in CHO cells
T6 sequence (VH, as listed by the source, chain 1 of 2): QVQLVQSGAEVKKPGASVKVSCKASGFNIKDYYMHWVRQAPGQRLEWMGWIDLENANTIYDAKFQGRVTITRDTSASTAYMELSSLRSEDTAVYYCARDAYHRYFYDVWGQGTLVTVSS
T6 sequence (VL, as listed by the source, chain 2 of 2): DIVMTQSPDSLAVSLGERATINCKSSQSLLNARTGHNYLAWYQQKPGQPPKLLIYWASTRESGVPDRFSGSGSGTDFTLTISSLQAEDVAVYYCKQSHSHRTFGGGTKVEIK
Description: as §1, §2, §4

ADI-70330 = target: T7, ADI-70330; test: SPR Carterra avidity, CHO anti-ID
T7 construct: anti-CD3 antibody made in CHO cells, captured by anti-human Fc
T7 sequence (VH, as listed by the source limits assumed, chain 1 of 2): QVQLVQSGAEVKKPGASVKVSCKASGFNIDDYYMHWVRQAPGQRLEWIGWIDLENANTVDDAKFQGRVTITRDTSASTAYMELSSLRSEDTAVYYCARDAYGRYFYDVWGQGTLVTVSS
T7 sequence (VL, as listed by the source limits assumed, chain 2 of 2): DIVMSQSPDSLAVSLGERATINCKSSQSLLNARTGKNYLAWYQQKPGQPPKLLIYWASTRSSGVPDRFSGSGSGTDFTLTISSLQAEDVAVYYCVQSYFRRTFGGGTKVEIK
Description: as §1, §2
(§5) In Tables 10A-10C, anti-CD3 antibodies are listed by ADI number or CTL number in the first column. […] CTL-62223 is mosunetuzumab, CTL-62227 is odronextamab, CTL-62228 is glofitamab, and CTL-62240 is ONO-4685. […] “W.B.” means weak binding under the conditions of this assay and thus a KD was unable to be assigned. “N.B.” means no binding under the conditions of this assay.

ADI-70326 = target: T8, ADI-70326; test: SPR Carterra avidity, CHO anti-ID
T8 construct: anti-CD3 antibody made in CHO cells, captured by anti-human Fc
T8 sequence (VH, as listed by the source limits assumed, chain 1 of 2): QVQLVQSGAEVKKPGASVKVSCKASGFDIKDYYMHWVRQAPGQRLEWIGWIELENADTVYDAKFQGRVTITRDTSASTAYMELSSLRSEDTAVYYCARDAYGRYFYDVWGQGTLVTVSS
Description: as §1, §2, §5

ADI-74966 = target: T9, ADI-74966; test: SPR Carterra avidity, CHO anti-ID
T9 construct: pH-dependent anti-CD3 antibody made in CHO cells
T9 sequence (VH, as listed by the source, chain 1 of 2): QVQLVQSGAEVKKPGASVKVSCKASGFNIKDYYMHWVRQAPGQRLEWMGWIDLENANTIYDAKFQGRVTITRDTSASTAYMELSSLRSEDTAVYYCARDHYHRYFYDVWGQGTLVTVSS
T9 sequence (VL, as listed by the source, chain 2 of 2): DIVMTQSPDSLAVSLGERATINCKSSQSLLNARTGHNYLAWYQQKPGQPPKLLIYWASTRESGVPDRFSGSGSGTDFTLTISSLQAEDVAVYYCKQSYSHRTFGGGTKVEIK
Description: as §1, §2, §5

ADI-67450 = target: T10, ADI-67450; test: SPR Carterra avidity, CHO anti-ID
T10 construct: anti-CD3 antibody made in CHO cells, captured by anti-human Fc
T10 sequence (VH, as listed by the source limits assumed, chain 1 of 2): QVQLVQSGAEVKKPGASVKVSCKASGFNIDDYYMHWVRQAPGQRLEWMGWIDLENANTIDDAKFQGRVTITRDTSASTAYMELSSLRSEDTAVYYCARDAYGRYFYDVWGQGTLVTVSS
Description: as §1, §2, §5

ADI-70327 = target: T11, ADI-70327; test: SPR Carterra avidity, CHO anti-ID
T11 construct: anti-CD3 antibody made in CHO cells, captured by anti-human Fc
T11 sequence (VH, as listed by the source limits assumed, chain 1 of 2): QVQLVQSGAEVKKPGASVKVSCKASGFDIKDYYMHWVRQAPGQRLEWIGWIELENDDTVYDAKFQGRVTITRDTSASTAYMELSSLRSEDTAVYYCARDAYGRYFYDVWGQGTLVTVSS
Description: as §1, §2, §5

ADI-48587 = target: T12, ADI-48587; test: SPR Carterra avidity, CHO anti-ID
T12 construct: pH-dependent anti-CD3 antibody made in CHO cells
Description: as §1, §2, §5

ADI-76362 = target: T13, ADI-76362; test: SPR Carterra avidity, CHO anti-ID
T13 construct: anti-CD3 antibody made in CHO cells, captured by anti-human Fc
T13 sequence (VH, as listed by the source, chain 1 of 2): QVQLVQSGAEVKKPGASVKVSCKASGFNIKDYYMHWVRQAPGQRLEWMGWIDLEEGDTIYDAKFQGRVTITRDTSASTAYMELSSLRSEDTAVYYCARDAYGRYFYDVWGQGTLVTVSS
Description: as §1, §2, §5

ADI-76358 = target: T14, ADI-76358; test: SPR Carterra avidity, CHO anti-ID
T14 construct: anti-CD3 antibody made in CHO cells, captured by anti-human Fc
T14 sequence (VH, as listed by the source, chain 1 of 2): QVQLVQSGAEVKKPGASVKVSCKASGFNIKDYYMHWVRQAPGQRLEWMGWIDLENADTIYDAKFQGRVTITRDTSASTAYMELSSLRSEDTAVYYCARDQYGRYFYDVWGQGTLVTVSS
Description: as §1, §2, §5

ADI-76360 = target: T15, ADI-76360; test: SPR Carterra avidity, CHO anti-ID
T15 construct: anti-CD3 antibody made in CHO cells, captured by anti-human Fc
T15 sequence (VH, as listed by the source, chain 1 of 2): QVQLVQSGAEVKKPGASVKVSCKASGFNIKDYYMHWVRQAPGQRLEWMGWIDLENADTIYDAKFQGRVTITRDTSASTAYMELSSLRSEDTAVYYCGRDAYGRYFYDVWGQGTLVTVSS
Description: as §1, §2, §5

ADI-26913 IgG [3] = target: T16, ADI-26913 IgG; test: SPR Carterra avidity, CHO anti-ID
T16 construct: anti-CD3 IgG
T16 sequence (VH, as listed by the source limits assumed, chain 1 of 2): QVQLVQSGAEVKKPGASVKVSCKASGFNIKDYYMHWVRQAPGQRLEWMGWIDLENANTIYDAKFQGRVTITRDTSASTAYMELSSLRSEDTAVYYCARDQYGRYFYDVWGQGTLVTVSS
Description: as §1, §2, §5

ADI-26913 IgG [4] = target: T16, ADI-26913 IgG; test: SPR Carterra avidity, CHO anti-ID, *koff limit
Description: as §1, §2, §3

ADI-26954 Fab = target: T17, ADI-26954 Fab; test: BLI; tip ADI-34145 IgG, solution anti-CD3 Fab
T17 construct: anti-CD3 Fab by papain digestion of the IgG
T17 sequence (VH, as listed by the source limits assumed, chain 1 of 2): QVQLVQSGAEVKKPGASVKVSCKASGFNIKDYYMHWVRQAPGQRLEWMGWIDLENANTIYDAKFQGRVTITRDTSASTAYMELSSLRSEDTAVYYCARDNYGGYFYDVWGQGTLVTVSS
T17 sequence (VL, as listed by the source limits assumed, chain 2 of 2): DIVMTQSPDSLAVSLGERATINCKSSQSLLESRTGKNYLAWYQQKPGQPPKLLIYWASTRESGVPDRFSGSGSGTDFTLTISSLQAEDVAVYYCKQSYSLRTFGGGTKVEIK
Description: (§6) ForteBio affinity measurements were performed generally as previously described (Estep et al., MAbs. 2013 5(2):270-8). Briefly, ForteBio affinity measurements were performed by loading antibody IgG or Fabs on-line onto AHC sensors. Sensors were equilibrated off-line in assay buffer for 30 minutes and then monitored on-line for 60 seconds for baseline establishment. For avid binding measurement, sensors with loaded antibodies were exposed to IgG or Fab solutions for 3 minutes, afterwards they were transferred to assay buffer for 3 minutes for off-rate measurement. Kinetics data were fit using a 1:1 binding model in the data analysis software provided by ForteBio to obtain equilibrium dissociation constant (KD=koff/kₒₙ) values. In each column, tip-immobilized antibodies are listed first and solution antibodies second.
(§7) In each column, tip-immobilized antibodies are listed first and solution antibodies second.

ADI-26906 Fab = target: T18, ADI-26906 Fab; test: BLI; tip ADI-34145 IgG, solution anti-CD3 Fab
T18 construct: anti-CD3 Fab by papain digestion of the IgG
T18 sequence (VH, as listed by the source limits assumed, chain 1 of 2): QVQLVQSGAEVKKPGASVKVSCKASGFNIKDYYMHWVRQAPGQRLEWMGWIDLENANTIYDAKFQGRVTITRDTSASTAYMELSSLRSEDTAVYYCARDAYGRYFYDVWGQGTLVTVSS
Description: as §6, §7

ADI-26913 Fab = target: T19, ADI-26913 Fab; test: BLI; tip ADI-34145 IgG, solution anti-CD3 Fab
T19 construct: anti-CD3 Fab by papain digestion of the IgG
Description: as §6, §7

ADI-22523 Fab = target: T20, ADI-22523 Fab; test: BLI; tip ADI-34145 IgG, solution anti-CD3 Fab
T20 construct: anti-CD3 Fab by papain digestion of the IgG
T20 sequence (VH, as listed by the source limits assumed, chain 1 of 2): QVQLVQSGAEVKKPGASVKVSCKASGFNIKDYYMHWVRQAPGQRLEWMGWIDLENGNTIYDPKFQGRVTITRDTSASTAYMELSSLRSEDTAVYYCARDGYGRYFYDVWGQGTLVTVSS
T20 sequence (VL, as listed by the source limits assumed, chain 2 of 2): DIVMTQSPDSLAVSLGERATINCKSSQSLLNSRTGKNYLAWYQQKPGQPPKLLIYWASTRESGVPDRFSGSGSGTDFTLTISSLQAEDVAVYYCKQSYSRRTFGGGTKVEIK
Description: as §6, §7

ADI-26924 [5] = target: T2, ADI-26924; test: SPR Carterra avidity, CHO anti-ID
Description: as §1, §2, §5

ADI-26919 = target: T21, ADI-26919; test: SPR Carterra avidity, CHO anti-ID
T21 construct: anti-CD3 antibody made in CHO cells, captured by anti-human Fc
Description: as §1, §2, §5

ADI-26920 IgG = target: T22, ADI-26920 IgG; test: SPR Carterra avidity, CHO anti-ID
T22 construct: anti-CD3 IgG
T22 sequence (VH, as listed by the source limits assumed, chain 1 of 2): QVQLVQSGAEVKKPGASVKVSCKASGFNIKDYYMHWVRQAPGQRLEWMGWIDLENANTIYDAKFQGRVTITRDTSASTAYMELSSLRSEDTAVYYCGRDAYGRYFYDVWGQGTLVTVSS
Description: as §1, §2, §5

ADI-26943 [6] = target: T3, ADI-26943; test: SPR Carterra avidity, CHO anti-ID
Description: as §1, §2, §5

ADI-76357 = target: T23, ADI-76357; test: SPR Carterra avidity, CHO anti-ID
T23 construct: anti-CD3 antibody made in CHO cells, captured by anti-human Fc
T23 sequence (VH, as listed by the source, chain 1 of 2): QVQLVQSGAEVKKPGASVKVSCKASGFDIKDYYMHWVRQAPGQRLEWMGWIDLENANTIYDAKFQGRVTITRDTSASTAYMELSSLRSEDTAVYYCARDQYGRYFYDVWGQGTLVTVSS
Description: as §1, §2, §5

ADI-67447 = target: T24, ADI-67447; test: SPR Carterra avidity, CHO anti-ID
T24 construct: anti-CD3 antibody made in CHO cells, captured by anti-human Fc
T24 sequence (VH, as listed by the source limits assumed, chain 1 of 2): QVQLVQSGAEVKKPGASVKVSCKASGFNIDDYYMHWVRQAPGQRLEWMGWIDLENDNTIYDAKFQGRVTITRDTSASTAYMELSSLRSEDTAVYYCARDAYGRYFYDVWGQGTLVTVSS
Description: as §1, §2, §5

T1 sequence (VH, as listed by the source, chain 1 of 2): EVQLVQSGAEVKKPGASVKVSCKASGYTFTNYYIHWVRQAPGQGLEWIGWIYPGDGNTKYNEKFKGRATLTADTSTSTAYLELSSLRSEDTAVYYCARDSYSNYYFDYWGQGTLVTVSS
T1 sequence (VL, as listed by the source, chain 2 of 2): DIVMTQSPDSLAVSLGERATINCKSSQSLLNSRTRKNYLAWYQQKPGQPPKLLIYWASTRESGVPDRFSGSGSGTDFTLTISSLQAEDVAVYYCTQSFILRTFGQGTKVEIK

B1: ADI-34134 IgG (antibody, V domains shown)
VH: QVQLVQSGAEVKKPGSSVKVSCKASGGTFSSYAISWVRQAPGQGLEWMGGIIPIFGTANYAQKFQGRVTITADESTSTAYMELSSLRSEDTAVYYCARGAPNYYGSGGYDDGWFDPWGQGTLVTVSS
VL: EIVLTQSPGTLSLSPGERATLSCRASQSVSSDYLAWYQQKPGQAPRLLIYGASSRATGIPDRFSGSGSGTDFTLTISRLEPEDFAVYYCQQFGRVPTFGGGTKVEIK
Kd (CTL-62223): 0.19 nM | Kd (ADI-26924 [1]): 0.1 nM | Kd (ADI-26943 [2]): 0.1 nM | Kd (ADI-26909): 0.11 nM | binding result (ADI-48650): binds | binding result (ADI-74965): binds | Kd (ADI-70330): 0.64 nM | Kd (ADI-70326): 1.2 nM | Kd (ADI-74966): 0.39 nM | Kd (ADI-67450): 0.68 nM | Kd (ADI-70327): 1.3 nM | Kd (ADI-48587): 1.3 nM | Kd (ADI-76362): 0.23 nM | Kd (ADI-76358): 0.54 nM | Kd (ADI-76360): 0.21 nM | Kd (ADI-26913 IgG [3]): 0.13 nM

B2: ADI-34145 IgG (antibody, V domains shown)
VH: EVQLLESGGGLVQPGGSLRLSCAASGFTFSSYAMSWVRQAPGKGLEWVSTISGSGGSTYYADSVKGRFTISRDNSKNTLYLQMNSLRAEDTAVYYCARLGGRRGSGSSYYYYYGMDVWGQGTTVTVSS
VL: not shown
notes: anti-ID IgG
Kd (ADI-26913 IgG [4]): 4.4 nM | Kd (ADI-26954 Fab): 19.4 nM | Kd (ADI-26906 Fab): 3.55 nM | Kd (ADI-26913 Fab): 7.52 nM | Kd (ADI-22523 Fab): 4.13 nM | Kd (ADI-26924 [5]): 3.5 nM | Kd (ADI-26919): 12 nM | Kd (ADI-26920 IgG): 15 nM | Kd (ADI-26943 [6]): 4.2 nM | Kd (ADI-76357): 5.6 nM | Kd (ADI-67447): 14 nM
